In patent publication US10174106B2, “Anti-neurotensin long fragment antibodies and uses thereof” (INSERM (INSTITUT NATIONAL DE LA SANTÉ ET DE LA RECHERCHE …, priority 2014, dated 2019):

Legend:
LNM-R tumors [1] = assay: Cisplatin test, LNM-R xenograft; format: in vivo, NMRI nu/nu mice
Experimental: (§1) Cisplatin test, 1×10^6 LMN-R cells and 1×10^6 R-SI NTSR1 were subcutaneously inoculated in NMRI nu/nu mice, LMN-R in the left flank and R-SI NTSR1 in the right flank. When tumors generated by LMN-R reached an average volume of 95 mm^3, mice were randomized in 5 groups of 8 to 10 mice. Group 1 was administered with PBS, group 2 with antibody FLp26-8.2 (i.p. every other day, 15 mg/kg) for total of 13 times and group 3 with mouse IgG (i.p. every other day, 15 mg/kg). Group 4 was administered with PBS and cisplatin (1 mg/kg at day 1,3 5 7, 15, 17, and 19) and groups 5 with antibody FLp26-8.2 (i.p. every other day, 15 mg/kg) and cisplatin (1 mg/kg at day 1,3 5 7, 15, 17, and 19). The volume of tumor was measured every other day.

R-SI NTSR1 tumors [2] = assay: Cisplatin test, R-SI NTSR1 xenograft; format: in vivo, NMRI nu/nu mice; settings: cisplatin 1 mg/kg day 1,3,5,7,15,17,19
Experimental: as §1

[3] = tested on: NTS-h cells (MCF-7 overexpressing NTS); assay: Type I collagen invasion assay, MCF-7 cells overexpressing NTS (NTS-h); format: cell-based; settings: NTS-overexpressing clone NTS-h; EGF 100 ng/mL; 7 μg antibody; 48 h
Experimental: The mouse #4 was selected. 5 clones were obtained. Clones 1-6, 7-12, 8-2, 13-1, and 16-12 were tested. […] The experiments were repeated twice.
(§2) The cell culture insert (8 μm, Beckton Dickinson®) was coated with type I collagen (100 μl/well, 4×10^2 μg/ml, Sigma®) at 37° C. 24 h before the assay. 1 million MCF, NTS-h, Hep 3B, HepR1a, and HepR2b cells were seeded in the insert with 250 μl of serum free medium in presence or absence of 7 μg antibodies FLp26-8.2. Outside the insert, 750 μl medium with 10% FCS was added in the well as chemoattractant. After 48 h of incubation, the non-invading cells and collagen are removed from the upper surface of the membrane by scrubbing with a cotton swab. Invading cells (those adhering to the bottom surface of the membrane) were fixed and stained with the Kwif diff stain kit (Thermo®) and the number of stained cells were counted with an inverted microscope at 200× magnification.

R-SI NTSR1 tumors [4] = assay: Tumor xenograft, R-SI NTSR1 cells (LNM-R with NTSR1 sh-RNA), right flank; format: in vivo, NMRI nu/nu mice; settings: 15 mg/kg i.p. every other day; vs PBS; same mice
Experimental: (§3) 1×10^6 LMN-R cells and 1×10^6 R-SI NTSR1 were subcutaneously inoculated in NMRI nu/nu mice, LMN-R in the left flank and R-SI NTSR1 in the right flank. When tumors generated by LMN-R reached an average volume of 40 mm^3, mice were randomized in 2 groups, then administered antibody FLp26-8.2 (i.p. every other day, 15 mg/kg) for total 8 times. PBS was used as the vehicle control. The volume of tumor was measured daily.

CHO-NTSR1 cells = assay: Cell proliferation of CHO-NTSR1 cells treated with NTS or LNM-R conditioned media; format: cell-based; settings: 2.8 μg antibody, 60% without antibody
Experimental: Cell Proliferation 20 000 CHO-NTSR1 cells were seeded in 48 well dishes, in 200 ul media 10% with FCS. […] Cells were treated for 40 h in 200 μl media with 2.5% FCS. Cellular proliferation was evaluated by counting using Beckman Coulter's cell counting.

MDA Si2 tumors = assay: Tumor xenograft, MDA Si2 cells (sh NTSR1), right flank; format: in vivo, NMRI nu/nu mice; settings: 15 mg/kg i.p. every other day, vs PBS
Experimental: (§4) 3×10^6 MDA-MB 231 cells and 3×10^6 MDA si2 were subcutaneously inoculated in 100 μl of matrigel the left flank and the right flank of the NMRI nu/nu mice, respectively. When tumors generated by MDA reached an average volume of 50 mm^3, mice were randomized in 2 groups, then administered antibody FLp26-8.2 (i.p. every other day, 15 mg/kg) for total 12 times. PBS was used as the vehicle control.

MCF-7 cells = assay: Type I collagen invasion assay, MCF-7 cells; format: cell-based; settings: parental MCF-7; EGF 100 ng/mL; 7 μg antibody; 48 h
Experimental: as §2

Hep-R1a cells = assay: Collagen invasion assay, Hep-R1a cells (Hep3B transfected with NTSR1); format: cell-based; settings: expressing NTS and NTSR1, exposed to antibody
Experimental: as §2

MDA-MB231 tumors = assay: Tumor xenograft, MDA-MB 231 breast cancer cells, left flank; format: in vivo, NMRI nu/nu mice; settings: 15 mg/kg i.p. every other day
Experimental: as §4

Hep-R1b cells = assay: Collagen invasion assay, Hep-R1b cells (Hep3B transfected with NTSR1); format: cell-based; settings: expressing NTS and NTSR1, exposed to antibody
LNM-R tumors [5] = assay: Tumor xenograft, LNM-R lung cancer cells (NTS and NTSR1 expressing), left flank; format: in vivo, NMRI nu/nu mice; settings: 15 mg/kg i.p. every other day
Experimental: as §3

Molecule	tumor growth rates (LNM-R tumors [1]; cisplatin 1 mg/kg day 1,3,5,7,15,17,19, IgG 15 mg/kg i.p. every other day, compared to PBS)	tumor size (R-SI NTSR1 tumors [2])	induction of invasiveness induced or not by EGF [3]	growth rate (R-SI NTSR1 tumors [4])	size of the tumor (R-SI NTSR1 tumors [4])	cellular growth inhibition with antibody added (CHO-NTSR1 cells; CM (LNM-R conditioned media) treated cells)	cellular growth inhibition with antibody added (CHO-NTSR1 cells; NTS treated cells (10^-7 M))	doubling time (MDA Si2 tumors)	growth rate (MDA Si2 tumors)	tumor size (MDA Si2 tumors)	induction of invasiveness induced or not by EGF (MCF-7 cells)	invasive rate of the cells (Hep-R1a cells)	tumor size (LNM-R tumors [1]; FLp26-8.2 15 mg/kg i.p. every other day, with or without cisplatin 1 mg/kg)	tumor growth (MDA-MB231 tumors; 24 days, compared to PBS)	growth rate from D1 (MDA-MB231 tumors; PBS 4.4±0.33)	doubling time after 24 days of treatment (MDA-MB231 tumors; control 11.63±1)	invasive rate of the cells (Hep-R1b cells)	tumor size as compared to controls (LNM-R tumors [5]; 8 times, vs PBS)	growth from D1 (LNM-R tumors [5]; PBS 24.68±4.05)	doubling time after 16 days of treatment (LNM-R tumors [5]; PBS control 3.43±0.34)
N.N.[Cl][Pt][Cl] [cisplatin, reference compound]	not altered	decreased																		
FLp26-8.2: NTS monoclonal antibody directed against NTS long fragment; VH SEQ ID NO:1, VL SEQ ID NO:5 (antibody, V domains shown, Synthetic VH Sequence; Synthetic VL sequence) VH: QIQLVQSGPELKKPGETVKISCKASGYTFTNYGMNWVKQAPGKGLKWMGWITTNTGEPTYAEEFKGRFAFSLETSASTAYLQINNLKNEDTATYFCARRAFAMDYWGQGTSVTVSS VL: DIVMTQAAPSVPVTPGESVSISCRSSKSLLHSNGNTYLYWFLQRPGQSPQLLIYRMSNLASGVPDRFSGSGSGTAFTLRISRVEAEDVGVYYCMQHLEYPYTFGGGTKLEIK			inhibited	not different	not different	15%	48%	no difference	no difference	no difference	only in the NTS-overexpressing clones	more drastic	smaller	strong reduction	2.1±0.18 fold	55.5 ± 32 days	reduced	2.6 times smaller	5.92±0.99 fold	5.96 ± 0.55 days
